# Test results as given in patent US5767072A (priority 1993, dated 1998).
# Where no end group is shown, it is not given here.
# B1: OVA: ovalbumin, carrier protein control (protein, UniProt P01012 2-386, looked up)
# Ovalbumin: GSIGAASMEFCFDVFKELKVHHANENIFYCPIAIMSALAMVYLGAKDSTRTQINKVVRFDKLPGFGDSIEAQCGTSVNVHSSLRDILNQITKPNDVYSFSLASRLYAEERYPILPEYLQCVKELYRGGLEPINFQTAADQARELINSWVESQTNGIIRNVLQPSSVDSQTAMVLVNAIVFKGLWEKAFKDEDTQAMPFRVTEQESKPVQMMYQIGLFRVASMASEKMKILELPFASGTMSMLVLLPDEVSGLEQLESIINFEKLTEWTSSNVMEERKIKVYLPRMKMEEKYNLTSVLMAMGITDVFSSSANLSGISSAESLKISQAVHAAHAEINEAGREVVGSAEAGVDAASVSEEFRADHPFLFCIKHIATNAVLFFGRCVSP
# Tests used:
# [1] = tested on: HIV infected cells; format: cell-based
# [2] = target: gp120 (Human immunodeficiency virus type 1 group M subtype B, UniProt P03375); format: binding, HIV-1
# [3] = target: T1, rgp120 (Human immunodeficiency virus type 1 group M subtype B, UniProt P03375); assay: inhibition of the binding of rCD4-HRP to rgp120 by rCD4 and CD4 peptides; parameters: species or system HIV-1; settings: even at concentrations of 50 μM
# Procedure: The relative affinity of the CD4-peptides-OVA for rgp120 vs rCD4 was calculated by dividing the […].
# [4] = target: T1, rgp120; assay: direct ELISA binding of peptide-OVA to rgp120; parameters: species or system HIV-1
# Procedure: CD4-peptide (41-84)-OVA (.circle-solid.); CD4-peptide (40-57)-OVA (.smallcircle.); CD4-peptide (81-92)-OVA (.box-solid.). Control peptide-OVA and OVA (.box-solid.).
# Wells coated with rgp120 and blocked as described above were treated with various concentrations of peptide-OVA or OVA (control) in 100 μl and the plate was incubated for 2 hr at 25° C. The plates were washed and then incubated with rabbit IgG anti-OVA coupled to HRP (5 μl/ml) for 2 hr at 25° C. The binding of the labeled antibody was detected as described above. Linear regression curves were generated by plotting the absorption vs the concentration of peptide-OVA.
molecule,measurement,setting,value
CCN(CC)CCCC(C)Nc1ccnc2cc(Cl)ccc12 (centres unmarked) [chloroquine],anticellular activity against HIV infected cells,[1],significant anticellular activity
GSFLTKGPSKLNDRADS [peptide 41-57],inhibition of the binding of CD4 to gp120,[2],unable to inhibit the binding of CD4 to gp120
Gln-Gly-Ser-Phe-Leu-Thr-Lys-Gly-Pro-Ser-Lys-Leu-Asn-Asp-Arg-^3 H-Ala-Asp-Ser [CD4-peptide (40-57)],inhibition of the binding of rCD4 to gp120 by free peptides,[3],did not inhibit the binding of rCD4 to gp120
TYICEVEDGKEE [CD4-peptide (81-92)],inhibition of the binding of rCD4 to gp120 by free peptides,[3],did not inhibit the binding of rCD4 to gp120
B1,binding to gp120 in direct ELISA,[4],did not bind gp120
